First the molecules themselves.
B1: CD2-associated protein, residues 1 to 59; numbered along this chain, Q9Y5K6 (parent)
chain: MVDYIVEYDYDAVHDDELTIRVGEIIRNVKKLQEEGWLEGELNGRRGMFPDNFVKEIKR

± gives the uncertainty stated by the source.

The data set covers variants of B1. Put plainly: abundance fitness (aPCA) (normalised: wild type 0, dead -1); higher = more abundant; growth selection in yeast, the domain comes from the species named. The following applies: Homo sapiens.
For the variant L32D, the abundance fitness was -0.223 ± 0.14.

Take L32H: the abundance fitness was -0.001 ± 0.12. Consider L32Y, for which the abundance fitness is -0.206 ± 0.18. With L32C, the abundance fitness was found to be 0.003 ± 0.11. With L32F the figure was 0.016 ± 0.19; with R59L, 0.063 ± 0.11; with R59E, 0.138 ± 0.12. Turning to R59H, the abundance fitness was determined as 0.107 ± 0.14. Turning to R59F, the abundance fitness was -0.182 ± 0.22.

On to W37M, for which the abundance fitness was -0.219 ± 0.15. In the case of W37S it was -0.277 ± 0.12; in that of W37Y, -0.02 ± 0.28; in that of W37G, -0.779 ± 0.25.

For the variant N28P, the abundance fitness is -0.909 ± 0.23. With N28T the figure was -0.615 ± 0.14. With N28K the figure was -0.262 ± 0.093; with N28L, -0.734 ± 0.11. In the case of N28W it was -0.892 ± 0.28; in that of N28A, -0.387 ± 0.093.

Consider N28V, for which the abundance fitness was -0.927 ± 0.14. Turning to N28C, the abundance fitness is -0.215 ± 0.13.

As for I25H, the abundance fitness is -0.146 ± 0.26.

I25R: the abundance fitness was -0.079 ± 0.071.

I25P: the abundance fitness was -0.845 ± 0.25. On to G36T, for which the abundance fitness is -0.618 ± 0.13. In the case of G36H it was -0.231 ± 0.1; in that of G36R, -0.195 ± 0.1. With G36M the figure was -0.433 ± 0.16; with G36V, -0.745 ± 0.13. With D15C the figure was -0.284 ± 0.17; with D15W, -0.453 ± 0.13; with D15P, -0.13 ± 0.2. As to D15R, the abundance fitness was -0.146 ± 0.076. As for D15M, the abundance fitness is -0.305 ± 0.096. Take D15H: the abundance fitness is -0.078 ± 0.14. For the variant D15E, the abundance fitness was 0.002 ± 0.094.

Regarding E35W, the abundance fitness is -0.399 ± 0.11. In the case of E35T, the abundance fitness was -0.177 ± 0.067. In the case of E35Q it was -0.07 ± 0.092; in that of E35V, -0.049 ± 0.066. E35S: the abundance fitness was -0.082 ± 0.068.

For the variant K55S, the abundance fitness is -0.07 ± 0.079. In the case of K55Y it was -0.294 ± 0.23; in that of K55E, -0.489 ± 0.3. In the case of K55D it was -0.755 ± 0.33. With K31I the figure was 0.191 ± 0.19; with K31F, -0.728 ± 0.33; with K31E, -0.061 ± 0.11.

K31H: the abundance fitness was determined as 0.036 ± 0.17. For the variant K31N, the abundance fitness was -0.311 ± 0.5. In the case of K31V, the abundance fitness is -0.092 ± 0.093. As for R45Y, the abundance fitness is -0.359 ± 0.24. Consider R45F, for which the abundance fitness is -0.248 ± 0.19. R45V: the abundance fitness was -0.275 ± 0.13. As for R45M, the abundance fitness was -0.274 ± 0.14. With R45H the figure was 0.232 ± 0.2; with A12W, -0.942 ± 0.22.

Regarding A12D, the abundance fitness is -0.846 ± 0.44. In the case of A12N it was -0.618 ± 0.22; in that of A12E, -0.435 ± 0.18; in that of A12T, -0.716 ± 0.25.

With A12K, the abundance fitness is -0.205 ± 0.14.

Consider A12M, for which the abundance fitness is -0.842 ± 0.22. With E17N the figure was -0.421 ± 0.23.

Regarding E17Y, the abundance fitness was -0.736 ± 0.38.

As for E17F, the abundance fitness is -0.466 ± 0.33. With F49S the figure was -0.695 ± 0.15; with F49V, -0.056 ± 0.17. In the case of F49A, the abundance fitness was -0.539 ± 0.26. As to F49I, the abundance fitness is -0.195 ± 0.15. As to G40L, the abundance fitness was -0.945 ± 0.24.

In the case of G40M, the abundance fitness is -0.661 ± 0.31. With E39Y the figure was -0.164 ± 0.15; with E39A, -0.146 ± 0.12.

In the case of E39M, the abundance fitness is -0.256 ± 0.13.

Consider E39N, for which the abundance fitness was -0.446 ± 0.21. In the case of E39K it was -0.302 ± 0.32; in that of E39S, -0.057 ± 0.087; in that of E39T, -0.26 ± 0.1.

Turning to I5N, the abundance fitness is -0.681 ± 0.36. In the case of I5M it was 0 ± 0.14. In the case of I5A it was -0.544 ± 0.17; in that of I5T, -0.335 ± 0.14. Turning to I5L, the abundance fitness was -0.105 ± 0.1.

For the variant F53N, the abundance fitness was -0.053 ± 0.072. In the case of F53A it was 0.052 ± 0.073. F53G: the abundance fitness was -0.145 ± 0.089. In the case of F53V it was 0.023 ± 0.083; in that of F53Y, -0.131 ± 0.13.

For the variant F53R, the abundance fitness was determined as 0.001 ± 0.084.

F53D: the abundance fitness was -0.433 ± 0.14. With D16N the figure was 0.001 ± 0.16; with D16P, -0.434 ± 0.13; with D16W, -0.08 ± 0.094. With D16S the figure was -0.036 ± 0.076.

Take D16T: the abundance fitness amounted to 0.005 ± 0.09. On to E56Q, for which the abundance fitness was -0.217 ± 0.25. E56I: the abundance fitness is -0.286 ± 0.44. In the case of E56K, the abundance fitness is 0.024 ± 0.28. With E56T the figure was -0.244 ± 0.17; with E7R, -0.087 ± 0.074. For the variant E7H, the abundance fitness is -0.581 ± 0.35.

On to E7P, for which the abundance fitness was -0.697 ± 0.13. For the variant Y8I, the abundance fitness stood at 0.184 ± 0.2. With Y8F, the abundance fitness came to 0.078 ± 0.18. In the case of Y8A it was 0.002 ± 0.082. In the case of Y8T it was 0.123 ± 0.16; in that of Y8E, -0.02 ± 0.099; in that of Y8V, -0.154 ± 0.11. In the case of Y8G it was -0.026 ± 0.1; in that of Y8H, 0.148 ± 0.23; in that of D9V, -0.77 ± 0.37. With D9A, the abundance fitness was -0.091 ± 0.14. With D9N the figure was -0.276 ± 0.4. In the case of D9C, the abundance fitness was -0.671 ± 0.37. With V54G, the abundance fitness is -0.075 ± 0.091. For V54S, the abundance fitness was -0.358 ± 0.16. With I20M the figure was -0.019 ± 0.11; with I20S, -0.743 ± 0.2; with I20V, -0.225 ± 0.082. With I20C the figure was -0.292 ± 0.14; with I20W, -0.736 ± 0.39. In the case of I57G it was -0.157 ± 0.24.

On to I57M, for which the abundance fitness was -0.205 ± 0.35.

Take I57C: the abundance fitness is -0.25 ± 0.32. In the case of I57P it was -0.326 ± 0.31; in that of V22S, -0.09 ± 0.086. With V22L the figure was -0.438 ± 0.1; with V22T, -0.067 ± 0.14; with L18F, -0.846 ± 0.44.

In the case of L18M, the abundance fitness is -0.244 ± 0.11. Turning to L18R, the abundance fitness is -0.504 ± 0.32. In the case of L18Y it was -0.904 ± 0.43; in that of V29D, -0.866 ± 0.35; in that of V29M, -0.883 ± 0.43. In the case of V29I, the abundance fitness is -0.441 ± 0.23.

Take V29E: the abundance fitness was -0.251 ± 0.24. In the case of V29G it was -0.261 ± 0.11; in that of V29K, -0.999 ± 0.28; in that of E24D, 0.321 ± 0.27. With E24Q the figure was -0.263 ± 0.18. As to E24M, the abundance fitness is -0.387 ± 0.12. In the case of E24T it was -0.449 ± 0.14. Consider Y4I, for which the abundance fitness was -0.844 ± 0.28.

Regarding Y4T, the abundance fitness is -0.136 ± 0.12.

On to Y4D, for which the abundance fitness is -0.826 ± 0.26. For the variant Y4V, the abundance fitness is -0.042 ± 0.13. In the case of N43P it was -0.653 ± 0.2; in that of N43F, -0.409 ± 0.15.

As for N43T, the abundance fitness was -0.62 ± 0.12. Take M48W: the abundance fitness was -0.126 ± 0.11. For M48R, the abundance fitness is 0.071 ± 0.062. In the case of M48C it was -0.012 ± 0.18; in that of M48Q, -0.015 ± 0.082. With M48Y the figure was -0.063 ± 0.16; with R46E, -0.445 ± 0.26; with R46S, -0.402 ± 0.13. Regarding R46M, the abundance fitness is -0.066 ± 0.2.

K58C: the abundance fitness was -0.099 ± 0.24.

On to K58V, for which the abundance fitness is -0.315 ± 0.29. With K58E the figure was 0.001 ± 0.22.

Regarding P50N, the abundance fitness was -0.261 ± 0.23. In the case of P50F it was -0.589 ± 0.16. With P50E the figure was -0.968 ± 0.4; with Y10T, -0.878 ± 0.18; with Y10W, -0.037 ± 0.062. Y10K: the abundance fitness was -0.322 ± 0.077.

The values above are taken from the Human Domainome abundance scans (Beltran et al. 2025).
